Measurements as given in patent US20180320138.

Columns and labels:
[1] = test system: PKLR TALEN left subunit (synthetic construct (Xanthomonas TALE-FokI)?); experiment: cell_activity; conditions: PKD2iPSC, with right subunit; 31% in PKD3iPSC; cleavage also seen by Surveyor assay
[2] = test system: PKLR TALEN right subunit (synthetic construct (Xanthomonas TALE-FokI)?); experiment: cell_activity; conditions: PKD2iPSC, with left subunit; 31% in PKD3iPSC; cleavage also seen by Surveyor assay

With “TGATCGAGCCACTGTACTCCAGCCTAGGTGACAGACGAGACCCTAGAGA (double strand) [PKLR intron 2 TALEN target, left half-site]” the TALEN cleavage efficiency [1] was 40%.

With “TGATCGAGCCACTGTACTCCAGCCTAGGTGACAGACGAGACCCTAGAGA (double strand) [PKLR intron 2 TALEN target, right half-site]” the TALEN cleavage efficiency [2] was 40%.
